This note sets out measurements from the nanobody polyreactivity screen of Harvey et al. (2022).

A short description of the series: yeast display, Sf9 membrane polyspecificity reagent, FACS + sequencing; frameworks hold sequencing errors. In outline:
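Galactose-induced (36–48 hours) yeast carrying a synthetic nanobody display library were exposed to 10% biotinylated, detergent-solubilized Sf9 membrane reagent at 4 °C for 1 hour. FACS followed streptavidin microbead enrichment, using low and high (top ~1%) gates for expression (anti-HA) and reagent binding (streptavidin). Colony PCR, MiSeq 2 × 250 sequencing and CDR-length filtering followed. Labels for polyreactivity reflect the gate of origin.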
Consider “QVQLVESWGGLVQAGGSLRLRCAASGRIFVSNAMGWYRQAPGKERELVAAISKRGASTYYADSVKGRFTISRDNAKNTVYLQMNSLKPEDTAVYYCNVVTPGGPNYDYWGQGTQVTVSS”, for which the “polyreactivity (PSR sort gate)” value is “high polyreactivity”.
Turning to “QVQLVESWGGLVQAGGSLRLSCAASGFTLYYYAMGWYRPAPGKERELVARISLRGGRTYYADSVKGRFTISRDNAKTTVYLQMNSLKPEESAVYYCAAVGRYPITWESGESDYWGQGTQVTVSS”, the “polyreactivity (PSR sort gate)” value is recorded as “high polyreactivity”.
Under “QVQLVESWGGLVQAGGSLRLSCAASGIIFQNYDMGWYRQAPGKERELVAAITGSGGSTYYADSVKGRFTISRDNAKNIVYLQMNSLKPEDTAVYYCAASSFVVSGYNKYYEYGYWGQGTQVTVSS” stands “low polyreactivity”.
As to “QVQLVESWGGLVQAGGSLRLSCAASGLIFVGNAMGWYRQAPGKERELVAAISSRGGRTYYADSVKGRFTISRDNAKNTVYLQMNSLKPEDTAVYYCAARVWRYPYYWGQGTQVTVSS”, the “polyreactivity (PSR sort gate)” value is recorded as “high polyreactivity”.
With “QVQLVESWGGLVQAGGSLRLSCAASGRIFYVYDMGWYRQAPGKERELVAAISWSGGSTSYADSVKGRFTISRDKAMYTVYLQMNSLKPEDTAVNYCAATSAIGWGYDYWGQGTQVNVSS”, the “polyreactivity (PSR sort gate)” value is given as “low polyreactivity”.
Regarding “QVQLVESWGGLVQAGGSLRLSCAASGRIIDRKAMGWYRQAPGKERELVAAISSSGSTNYADSVKGRFTFSRDNAKNTVYLQMISLKPEDTSVYYCAARWRSVLAAGTRPVSFDYWGQGTQVTVSS”, the “polyreactivity (PSR sort gate)” value is recorded as “low polyreactivity”.
Regarding “QVQLVESWGGLVQAGGSLRLSCAASGRIINQYAMGWYRQAPGKERELVAAITLNGGSTYYADSVKGRFTISRDNAKNTVYLQMNSLKPEDTAVYYCNNRYTHYSRKGVSYPKYDYWGQGNQVTVSS”, the “polyreactivity (PSR sort gate)” value is recorded as “high polyreactivity”.
In the case of “QVQLVESWGGLVQAGGSLRLSCAASGRILNYYDMGWYRQAPGKERELVAGISRGGSTTYADSVKGRFTISRDNAKNTVYLQMISLKPEDTAVYYCNADRSHYWLPYGVRFDYWGQGTQVNVSS”, the “polyreactivity (PSR sort gate)” value is given as “low polyreactivity”.
As to “QVQLVESWGGLVQAGGSLRLSCAASGRTFHSYAMGWYRQAPGKERELVAAITSSGGSTYYADSVKGRFTISRDNAKNTVYLQMNSLKPEDTAVYYCAAPYRYLSRGGEMGYWGQGTQVTVSS”, the “polyreactivity (PSR sort gate)” value was “high polyreactivity”.
Under “QVQLVESWGGLVQAGGSLRLSCAASGRTFRLYAMGWYRQAPGKERELVATNTSTGSTNYADSVKGRFTISRDNAKNTVFLQMNSLKPDDTAVYYCNAAWYNPKSWTQYPPFDYWGQGTQVTVSS” stands “high polyreactivity”; under “QVQLVESWGGLVQAGGSLRLSCAASGRTFRRNAMGWYRQSPGKERELVATISSSGGRTYYADSVKGRFTISRDNAKKTVYLQMNSLKPEDTAVYYCIKALRSYPLFYFWVQGTQVTVSS”, “high polyreactivity”.
On to “QVQLVESWGGLVQAGGSLRLSCAASGRTLGRNAMGWYRQAPGKEREWVASISSGGSTNYADSVKGRFTISRDNAKNTVYLQMNSLKPEDTAVYYCNKRYRSLYSSGYDYWGQGTQVTVSS”, for which the “polyreactivity (PSR sort gate)” value is listed as “high polyreactivity”.
Take “QVQLVESWGGLVQAGGSLRLSCAASGRTSGNYAMGWYRQAPGKERELVAAIRYSGSSTFYADSVKGRFTISRDNAKNTVYLQMNSLKPEDTAVYYCARDIRRKGFRYDYWGQGTQVNVSS”: the “polyreactivity (PSR sort gate)” value is given as “high polyreactivity”.
Under “QVQLVESWGGLVQAGGSLRLSCAASGSIFDNYAMGWYRQAPGKERELVAAISWSGGRTYYADSVKGRFTISRDNAKNTVYLQMNSLKPEDTAVYYCAAYVYTSFLYYYWGQGTQVTVSS” stands “high polyreactivity”.
For the sequence “QVQLVESWGGLVQAGGSLRLSCAASGSIFPRNAMGWYRQAPGKERELVATISSGGSTYYADSVKGRFTISRDNAKNTVYLQMNSLKPEDTAVYYCAAEYVVRAIDVDYDYWGQGTQVTVSS”, the “polyreactivity (PSR sort gate)” value is reported as “high polyreactivity”.
As to “QVQLVESWGGLVQAGGSLRLSCAASGSIFSPYAIGWYRQAPGKERELVAAISFRASTTYYADSVKGRFTITRDNAKNTVYLQMNSLKPEDTAVYYCAASPLYSWFWGLYDYWGQGTQVTVSS”, the “polyreactivity (PSR sort gate)” value is “low polyreactivity”.
